Results reported in article PMC11734626.

Biological target: T7-tagged TanGIBLE (Tandem BAG6 domain I BUILD linked entity) (human) (UniProt P46379)
Assay: co-IP

Flag-tagged IL-2 receptor α subunit without its signal sequence (Flag-IL-2Rα ΔSS) (domain or fragment)
fold co-precipitated against BAG6 N200, with MG-132: 2.4 fold | fold co-precipitated against BAG6 N200, without MG-132: 5.6 fold
